Measurements as given in paper PMC5571166, “Mapping the key residues of SufB and SufD essential for biosynthesis of iron-sulfur clusters” (Scientific Reports, 2017).
Residue numbers refer to the chain shown, from its start.

Experiments:
Assay in all cases: SEC; SufBCD complexes co-expressed in E. coli and co-purified on Phenyl FF, Q XL and Sephacryl S-200; eluted from gel filtration at about 160 kDa; subunit composition checked by SDS-PAGE of the purified sample
Settings in all cases: both partners purified
SufB (wild type) = molecular target: T1, SufB (wild type) (Escherichia coli, UniProt P77522 1-495)
T1 construct: SufB of the Escherichia coli sufABCDSE operon; Expressed from the cloned suf genes with no tag mentioned; The host is stated only for the variant complexes (YT2512, pGSO164-derived plasmid); One SufB per SufBCD complex (SufB:SufC:SufD 1:2:1); also called SufB subunit of the wild-type SufBCD complex; source: purified as the wild-type SufBCD complex; E. coli YT2512 (ΔsufABCDSE) from pBBR-sufAB, in …
T1 sequence: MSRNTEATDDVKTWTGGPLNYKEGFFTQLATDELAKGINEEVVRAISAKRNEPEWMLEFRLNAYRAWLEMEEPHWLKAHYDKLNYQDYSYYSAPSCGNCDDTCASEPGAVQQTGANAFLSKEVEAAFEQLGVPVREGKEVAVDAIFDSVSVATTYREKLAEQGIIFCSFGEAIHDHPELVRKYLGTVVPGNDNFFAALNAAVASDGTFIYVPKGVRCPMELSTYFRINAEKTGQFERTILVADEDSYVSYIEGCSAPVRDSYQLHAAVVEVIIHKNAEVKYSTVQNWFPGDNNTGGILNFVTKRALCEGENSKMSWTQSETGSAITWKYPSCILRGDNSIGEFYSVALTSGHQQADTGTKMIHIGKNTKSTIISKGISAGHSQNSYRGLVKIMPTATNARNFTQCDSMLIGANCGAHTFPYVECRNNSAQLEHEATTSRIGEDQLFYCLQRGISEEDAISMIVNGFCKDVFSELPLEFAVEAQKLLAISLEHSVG

SufB^C405A = molecular target: T2, SufB^C405A (Escherichia coli, UniProt P77522 1-495, SufB^C405A)
T2 construct: SufB of the Escherichia coli sufABCDSE operon
T2 sequence: T1 sequence with C405A

SufB^N228A = molecular target: T3, SufB^N228A (Escherichia coli, UniProt P77522 1-495, SufB^N228A)
T3 construct: SufB of the Escherichia coli sufABCDSE operon
T3 sequence: T1 sequence with N228A

SufB^R226A = molecular target: T4, SufB^R226A (Escherichia coli, UniProt P77522 1-495, SufB^R226A)
T4 construct: SufB of the Escherichia coli sufABCDSE operon
T4 sequence: T1 sequence with R226A

Measured: binding result

B1: SufC (natural protein, Escherichia coli)
chain: MLSIKDLHVSVEDKAILRGLSLDVHPGEVHAIMGPNGSGKSTLSATLAGREDYEVTGGTVEFKGKDLLALSPEDRAGEGIFMAFQYPVEIPGVSNQFFLQTALNAVRSYRGQETLDRFDFQDLMEEKIALLKMPEDLLTRSVNVGFSGGEKKRNDILQMAVLEPELCILDESDSGLDIDALKVVADGVNSLRDGKRSFIIVTHYQRILDYIKPDYVHVLYQGRIVKSGDFTLVKQLEEQGYGWLTEQQ
notes: SufC of the Escherichia coli sufABCDSE operon; also called SufC subunit of the SufBCD complex
binds: all assays above

B2: SufD (natural protein, Escherichia coli)
chain: MAGLPNSSNALQQWHHLFEAEGTKRSPQAQQHLQQLLRTGLPTRKHENWKYTPLEGLINSQFVSIAGEISPQQRDALALTLDSVRLVFVDGRYVPALSDATEGSGYEVSINDDRQGLPDAIQAEVFLHLTESLAQSVTHIAVKRGQRPAKPLLLMHITQGVAGEEVNTAHYRHHLDLAEGAEATVIEHFVSLNDARHFTGARFTINVAANAHLQHIKLAFENPLSHHFAHNDLLLAEDATAFSHSFLLGGAVLRHNTSTQLNGENSTLRINSLAMPVKNEVCDTRTWLEHNKGFCNSRQLHKTIVSDKGRAVFNGLINVAQHAIKTDGQMTNNNLLMGKLAEVDTKPQLEIYADDVKCSHGATVGRIDDEQIFYLRSRGINQQDAQQMIIYAFAAELTEALRDEGLKQQVLARIGQRLPGGAR
notes: SufD of the Escherichia coli sufABCDSE operon; One SufD per SufBCD complex (1:2:1); also called SufD subunit of the SufBCD complex
binds: all assays above
